Measurements from US20260116991A1.

B1: hAb003LH2L1 (antibody, human IgG1, V domains shown)
VH: EVQLVQSGAEVKKPGSSVKVSCKASGYRFTDYEMHWVRQAPGQGLEWMGTIDPETGNTAYTQKFMDRVTITADKSTSTAYMELSSLRSEDTAVYYCTRGYSFTYWGQGTLVTVSS
VL: DIVMTQTPLSLPVTPGEPASISCRSSQNIVHSNGNTYLQWYLQKPGQSPQLLIFKVSNRFSGVPDRFSGSGSGTDFTLKISRVEAEDVGVYYCFQGSHVPFTFGQGTKLEIK
B2: hAb003LH2L1a (antibody, human IgG1, V domains shown)
VH: EVQLVQSGAEVKKPGSSVKVSCKASGYRFTDYEMHWVRQAPGQGLEWMGTIDPETGNTAYTQKFMDRVTITADKSTSTAYMELSSLRSEDTAVYYCTRGYSFTYWGQGTLVTVSS
VL: DIVMTQTPLSLPVTPGEPASISCRSSQNIVHSDGNTYLQWYLQKPGQSPQLLIFKVSNRFSGVPDRFSGSGSGTDFTLKISRVEAEDVGVYYCFQGSHVPFTFGQGTKLEIK
B3: hAb003LH3L1a (antibody, human IgG1, V domains shown)
VH: EVQLVQSGAEVKKPGSSVKVSCKASGYRFTDYEMHWVRQAPGQGLEWMGTIDPETGNTAYTQKFMDRVTLTADKSTSTAYMELSSLRSEDTAVYYCTRGYSFTYWGQGTLVTVSS
VL: DIVMTQTPLSLPVTPGEPASISCRSSQNIVHSDGNTYLQWYLQKPGQSPQLLIFKVSNRFSGVPDRFSGSGSGTDFTLKISRVEAEDVGVYYCFQGSHVPFTFGQGTKLEIK
B4: hAb005LH2L1 (antibody, human IgG1, V domains shown)
VH: EVQLVQSGAEVKKPGASVKVSCKASGYTFTDYEMHWVRQAPGQGLEWMGAIDPETGNTAYIQKFKGRVTLTTDKSTSTAYMELRSLRSDDTAVYYCTRFYSYSHWGQGTTVTVSS
VL: DIVMTQTPLSLPVTPGEPASISCRSSQSLVHSNGNTYLHWYLQKPGQSPQLLIYKVSNRFSGVPDRFSGSGSGTDFTLKISRVEAEDVGVYYCSQNTHVPPTFGGGTKVEIK
B5: hAb005LH3L1 (antibody, human IgG1, V domains shown)
VH: EVQLVQSGAEVKKPGASVKVSCKASGYTFTDYEMHWVRQAPGQGLEWIGAIDPETGNTAYIQKFKGRATLTTDKSTSTAYMELRSLRSDDTAVYYCTRFYSYSHWGQGTTVTVSS
VL: DIVMTQTPLSLPVTPGEPASISCRSSQSLVHSNGNTYLHWYLQKPGQSPQLLIYKVSNRFSGVPDRFSGSGSGTDFTLKISRVEAEDVGVYYCSQNTHVPPTFGGGTKVEIK
B6: hAb005LH1L1 (antibody, human IgG1, V domains shown)
VH: EVQLVQSGAEVKKPGASVKVSCKASGYTFTDYEMHWVRQAPGQGLEWMGAIDPETGNTAYIQKFKGRVTMTTDKSTSTAYMELRSLRSDDTAVYYCTRFYSYSHWGQGTTVTVSS
VL: DIVMTQTPLSLPVTPGEPASISCRSSQSLVHSNGNTYLHWYLQKPGQSPQLLIYKVSNRFSGVPDRFSGSGSGTDFTLKISRVEAEDVGVYYCSQNTHVPPTFGGGTKVEIK
B7: hAb006LH1L1 (antibody, human IgG1, V domains shown)
VH: EVQLVQSGAEVKKPGSSVKVSCKASGYTFSDYEIHWVRQAPGQGLEWMGAIDPKTGNTAYNQKFMGRVTITADKSTSTAYMELSSLRSEDTAVYYCTRYFSFAYWGQGTLVTVSS
VL: DIVMTQTPLSLPVTPGEPASISCRSSQTFVHSNGNTYLQWYLQKPGQSPQLLIYKVSNRFSGVPDRFSGSGSGTDFTLKISRVEAEDVGVYYCFQGSHVPYTFGQGTKLEIK
B8: hAb003LH3L1 (antibody, human IgG1, V domains shown)
VH: EVQLVQSGAEVKKPGSSVKVSCKASGYRFTDYEMHWVRQAPGQGLEWMGTIDPETGNTAYTQKFMDRVTLTADKSTSTAYMELSSLRSEDTAVYYCTRGYSFTYWGQGTLVTVSS
VL: DIVMTQTPLSLPVTPGEPASISCRSSQNIVHSNGNTYLQWYLQKPGQSPQLLIFKVSNRFSGVPDRFSGSGSGTDFTLKISRVEAEDVGVYYCFQGSHVPFTFGQGTKLEIK
B9: hAb003LH3L1b (antibody, human IgG1, V domains shown)
VH: EVQLVQSGAEVKKPGSSVKVSCKASGYRFTDYEMHWVRQAPGQGLEWMGTIDPETGNTAYTQKFMDRVTLTADKSTSTAYMELSSLRSEDTAVYYCTRGYSFTYWGQGTLVTVSS
VL: DIVMTQTPLSLPVTPGEPASISCRSSQNIVHSNRNTYLQWYLQKPGQSPQLLIFKVSNRFSGVPDRFSGSGSGTDFTLKISRVEAEDVGVYYCFQGSHVPFTFGQGTKLEIK
B10: hAb005LH1L1a (antibody, human IgG1, V domains shown)
VH: EVQLVQSGAEVKKPGASVKVSCKASGYTFTDYEMHWVRQAPGQGLEWMGAIDPETGNTAYIQKFKGRVTMTTDKSTSTAYMELRSLRSDDTAVYYCTRFYSYSHWGQGTTVTVSS
VL: DIVMTQTPLSLPVTPGEPASISCRSSQSLVHSDGNTYLHWYLQKPGQSPQLLIYKVSNRFSGVPDRFSGSGSGTDFTLKISRVEAEDVGVYYCSQNTHVPPTFGGGTKVEIK
B11: hAb005LH3L1a (antibody, human IgG1, V domains shown)
VH: EVQLVQSGAEVKKPGASVKVSCKASGYTFTDYEMHWVRQAPGQGLEWIGAIDPETGNTAYIQKFKGRATLTTDKSTSTAYMELRSLRSDDTAVYYCTRFYSYSHWGQGTTVTVSS
VL: DIVMTQTPLSLPVTPGEPASISCRSSQSLVHSDGNTYLHWYLQKPGQSPQLLIYKVSNRFSGVPDRFSGSGSGTDFTLKISRVEAEDVGVYYCSQNTHVPPTFGGGTKVEIK
B12: hAb005LH3L1b (antibody, human IgG1, V domains shown)
VH: EVQLVQSGAEVKKPGASVKVSCKASGYTFTDYEMHWVRQAPGQGLEWIGAIDPETGNTAYIQKFKGRATLTTDKSTSTAYMELRSLRSDDTAVYYCTRFYSYSHWGQGTTVTVSS
VL: DIVMTQTPLSLPVTPGEPASISCRSSQSLVHSNRNTYLHWYLQKPGQSPQLLIYKVSNRFSGVPDRFSGSGSGTDFTLKISRVEAEDVGVYYCSQNTHVPPTFGGGTKVEIK
B13: hAb005LH2L1a (antibody, human IgG1, V domains shown)
VH: EVQLVQSGAEVKKPGASVKVSCKASGYTFTDYEMHWVRQAPGQGLEWMGAIDPETGNTAYIQKFKGRVTLTTDKSTSTAYMELRSLRSDDTAVYYCTRFYSYSHWGQGTTVTVSS
VL: DIVMTQTPLSLPVTPGEPASISCRSSQSLVHSDGNTYLHWYLQKPGQSPQLLIYKVSNRFSGVPDRFSGSGSGTDFTLKISRVEAEDVGVYYCSQNTHVPPTFGGGTKVEIK

Columns and labels:
[1] = biological target: monkey GPC3-His protein (monkey); experiment: ELISA, monkey GPC3-His coated; antibody 0.004 nM
[2] = biological target: monkey GPC3-His protein (monkey); experiment: ELISA, monkey GPC3-His coated; antibody 66.66 nM
[3] = biological target: monkey GPC3-His protein (monkey); experiment: ELISA, monkey GPC3-His coated; antibody 0.53 nM
[4] = biological target: monkey GPC3-His protein (monkey); experiment: ELISA, monkey GPC3-His coated; antibody 2.67 nM
[5] = biological target: monkey GPC3-His protein (monkey); experiment: ELISA, monkey GPC3-His coated; antibody 0.0008 nM
[6] = biological target: monkey GPC3-His protein (monkey); experiment: ELISA, monkey GPC3-His coated; antibody 13.33 nM
[7] = biological target: monkey GPC3-His protein (monkey); experiment: ELISA, monkey GPC3-His coated; antibody 0.11 nM
[8] = biological target: monkey GPC3 on HEK293T-monkey GPC3 cells (monkey); experiment: FACS on HEK293T-monkey GPC3 cells
[9] = biological target: monkey GPC3-His protein (monkey); experiment: ELISA, monkey GPC3-His coated; antibody 0.02 nM

Binder | OD450 nm [1] | OD450 nm [2] | OD450 nm [3] | OD450 nm [4] | OD450 nm [5] | OD450 nm [6] | OD450 nm [7] | EC50 [8] [nM] | Max MFI [8] [MFI] | OD450 nm [9]
B1 | 0.413 | 2.51 | 2.58 | 2.57 | 0.175 | 2.44 | 2.16 | 1.32 | 29600 | 1.22
B2 | 0.16 | 2.23 | 2.12 | 2.17 | 0.15 | 2.34 | 1.37 | 3.09 | 23200 | 0.475
B3 | 0.202 | 2.39 | 2.21 | 2.38 | 0.089 | 2.3 | 1.59 | 3.27 | 24500 | 0.633
B4 | 0.222 | 1.2 | 1.28 | 1.24 | 0.164 | 1.15 | 1.13 | 2.88 | 23400 | 0.649
B5 | 0.226 | 1.24 | 1.15 | 1.27 | 0.088 | 1.13 | 0.997 | 3.09 | 22200 | 0.609
B6 | 0.103 | 1.1 | 1.16 | 1.21 | 0.069 | 1.22 | 0.94 | 2.17 | 23400 | 0.594
B7 | 0.369 | 2.48 | 2.5 | 2.43 | 0.121 | 2.56 | 2.02 | 1.53 | 33500 | 1.1
B8 | 0.357 | 2.53 | 2.22 | 2.36 | 0.16 | 2.36 | 1.85 | 1.58 | 30900 | 0.963
B9 | 0.432 | 2.53 | 2.5 | 2.4 | 0.165 | 2.4 | 2.1 | 1.28 | 31300 | 1.17
B10 | 0.045 | 0.578 | 0.053 | 0.111 | 0.06 | 0.195 | 0.066 | 71.6 | 2910 | 0.039
B11 | 0.041 | 0.527 | 0.042 | 0.098 | 0.04 | 0.161 | 0.038 | 112 | 2920 | 0.039
B12 | 0.237 | 1.18 | 1.27 | 1.33 | 0.088 | 1.27 | 1.11 | 2.37 | 22100 | 0.663
B13 | 0.04 | 0.652 | 0.056 | 0.136 | 0.099 | 0.276 | 0.042 | 32.8 | 3490 | 0.041
